Changes are numbered by the printed parent chain.
T1: His-tagged mouse CD38 (ACRO Biosystems CD8-M5223) (mouse, UniProt P56528 45-304)
T1 construct: bought protein; used for ELISA coating and as SPR analyte; also called Murine; not shown: His tag
T1 sequence (looked up): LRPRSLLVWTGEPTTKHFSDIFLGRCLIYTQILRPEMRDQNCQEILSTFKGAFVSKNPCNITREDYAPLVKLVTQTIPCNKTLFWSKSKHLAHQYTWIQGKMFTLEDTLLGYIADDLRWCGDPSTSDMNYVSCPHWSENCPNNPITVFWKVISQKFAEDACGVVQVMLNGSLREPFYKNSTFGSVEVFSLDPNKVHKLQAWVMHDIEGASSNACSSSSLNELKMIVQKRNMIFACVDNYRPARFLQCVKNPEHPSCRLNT

T2: Murine CD38 on transiently transfected Expi293 cells (Origene MC208001) (murine, UniProt P56528 1-304)
T2 construct: whole, on cells
T2 sequence (looked up): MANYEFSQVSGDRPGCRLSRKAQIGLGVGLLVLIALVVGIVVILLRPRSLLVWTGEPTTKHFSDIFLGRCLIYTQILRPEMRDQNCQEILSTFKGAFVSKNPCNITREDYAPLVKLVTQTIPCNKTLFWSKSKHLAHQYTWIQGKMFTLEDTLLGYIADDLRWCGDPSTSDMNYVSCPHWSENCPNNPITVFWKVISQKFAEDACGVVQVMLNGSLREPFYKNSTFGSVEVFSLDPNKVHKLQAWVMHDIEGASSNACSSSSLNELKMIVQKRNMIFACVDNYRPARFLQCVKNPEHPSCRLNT

B1: 40617p1.2.B4 (scFv, V domains shown)
VH: EVQLLESGGGFVQPGGSLRLSCAASGFTFTNYVMNWVRQAPGKGLEWVSSISISGGRYTWYADSVKGRFTISRDNSRNTLYLQMNSLRAEDTAIYYCAREMNTYSFPMDVWGQGTTVTVSS
VL: EIVLTQSPGTLSLSPGERATLNCRASQNVRSDLAWYQQKPGQAPRLLIYDASNRATGIPDRFSGSGSGTDFSLTISRLEPEDFAVYYCQQYYDWPPYTFGGGTKVEIK
B2: 40769p1.1.B12 (scFv, V domains shown)
VH: EVQLLESGGGLIQPGGSLRLSCTASGFDFSSYGMHWVRQAPGKGLEWVGIISDSGGTTYYADSVKGRFTISRDNSKNTMYLQMNSLRAEDTALYYCASYIMDVWGQGITVTVSS
VL: QSVLTQPPSASGTPGQRVTISCSGSSSNVGGNSVYWYQQLPGTAPKLLFYGNHRRPSGVPDRFSGSKSGTSASLAISGLQSEDEADYYCAVWDDSLNAWVFGGGTKLTVL
B3: 40769p1.2.C9 (scFv, V domains shown)
VH: EVQLLESGGGLVQPGGSLRLSCAASGFTFSSHDMNWVRQAPGKGLEWVSTITTTGGTYYTDSVKGRFTISRDNSKNTIYLQMTSLRAEDTAVYYCTKHYSMDVWGQGTTVTVSS
VL: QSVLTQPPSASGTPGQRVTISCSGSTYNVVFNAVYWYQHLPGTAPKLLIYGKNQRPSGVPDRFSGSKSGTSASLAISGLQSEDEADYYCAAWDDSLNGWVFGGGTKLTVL
B4: 40617p1.2.H1 (scFv, V domains shown)
VH: EVQLLESGGGLVQPGGSLRLSCAASGFTFTNYWMTWVRQAPGKGLEWVSAISSYGGNYMYYADSVKGRFTISRDNSENTLYLQMNSLRAEDTAVYYCAKDWDDGMDVWGQGTTVTVSS
VL: EIVMTQSPAVLSVSPGERATLSCRASQTVGSKLAWYQQKPGQAPRLLIYGVSTRAAGIPDRFSGSGSGTDFTLTISSLQSEDFAVYYCQQYYDLPPYSFGGGTKVEIK
B5: 40769p1.2.B10 (scFv, V domains shown)
VH: EVQLLESGGGLVQPGGSLRLSCPASGFDFSSYWMTWVRQAPGKGLEWVSTITDSGGRAWYADSVRGRFTISRDNSKNTLYLQMNSLRAEDTAVYYCARDTPKTYYYYAMDVWGQGTTVTV
VL: QSALTQPPSASGTPGQRVTISCSGSSSNIQYSYVSWYQQLPGTAPKLLIYNNVQRPSGVPDRFSGSKSGTSASLAISGLQSEDEADYYCATWDESLLGLWVFGGGTKLTVL
B6: 40769p1.1.B10 (scFv, V domains shown)
VH: EVQLLESGGGLVQPGGSLRLSCTASGITFSRFNMFWVRQAPGKGLEFVASIRDDGSWTYYADSVKGRFTISRDNSKNTLYLQMNSLRAEDTAVYYCAKDYNSKDFIYHYVMDVWGQGTTVTVSS
VL: QSVLTQPPSASGTPGQRVTISCSGRNSNIGNNVVNWYQQLPGTAPKLLIYRNQERPSGVPDRFSGSKSGTSASLAISGLQSEDEADYYCSTWDDSLNGWVFGGGTKLTVL
B7: 40769p2.2.D9 scFv-Fc (scFv, V domains shown)
VH: EVQLLESGGGLVQPGGSLRLSCAGSGFTFSDYWMSWVRQAPGKGLEWVSTISITAGIIYYADSVKGRFTISRDNSKNTLYLQMNSLRAEDTAVYYCAKDNWNDYYGMDVWGQGTTVTVSS
VL: QSVLTQPPSASGTPGQRVTVSCSGSRSNIRDNYVYWYQQVPGTAPKLLIYKDDQRPSGVPDRFSGSKSGTSASLVISGLQSEDEADYYCATWDGSLNARVFGGGTKLTVL
notes: scFv-Fc
B8: 40769p2.2.A5 scFv-Fc (scFv, V domains shown)
VH: B2 VH with S54T, A61G, N77S, M79L, I108T
VL: B2 VL with S26N, G31D, S33A, N52T, H53N, V91A
notes: scFv-Fc
B9: 40769p2.2.E12 scFv-Fc (scFv, V domains shown)
VH: B2 VH with S54T, A61G, N77S, M79L, I108T
VL: B2 VL with S26N, G31D, S33A, L40P, N52T, H53N, V91A
notes: scFv-Fc
B10: 40769p2.2.D3 scFv-Fc (scFv, V domains shown)
VH: B2 VH with M79L
VL: B2 VL with S26N, G31V, F49I, N52S, H53G, G65V, V91A, D94G, S95G
notes: scFv-Fc
B11: 40769p2.2.A6 scFv-Fc (scFv, V domains shown)
VH: EVQLLESGGGLVQPGGSLRLSCAASGFTFSDYEMNWVRQAPGKGLEWVSAISITGSWTYYADSVKGRFTISRDNSENTLYLQMNNLRAEDTAVYYCANYKSYYGMDVWGRGTTVTVSS
VL: QSVLTQPPSASGTPGQRVTISCSGSRSNIRNNLVNWYQQLPGTAPKLLIYNTQRPSGVPDRFSGSKSGTSASLAISGLQSEDEADYYCASWDASLNAWVFGGGTKLTVL
notes: scFv-Fc
B12: 40769p2.2.C11 scFv-Fc (scFv, V domains shown)
VH: B11 VH with A50S, E76K, R110H
VL: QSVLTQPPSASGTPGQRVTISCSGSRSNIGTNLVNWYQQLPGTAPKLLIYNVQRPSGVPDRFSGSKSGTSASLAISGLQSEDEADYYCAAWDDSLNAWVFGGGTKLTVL
notes: scFv-Fc
B13: 40769p2.2.A9 scFv-Fc (scFv, V domains shown)
VH: B6 VH with R67Q
VL: B6 VL
notes: scFv-Fc
B14: 40596p2.1.A2 IgG (antibody, V domains shown)
VH: EVQLLESGGGLVQPGGSLTLSCTASGLTFSSYAMNWVRQAPGKGLEWVATISSNSGSFRSYADSVKGRFTISRDNSKSTLYLQTNSLRAEDTALYYCTKDRSITANDFTMDVWGQGTTVTVSS
VL: EIVLTQSPGTLSVSPGERATLNCRASQTVGSRLAWYQQKPGQAPRLLIYGASSRATGIPARFSGSGSGTEFTLTISSLQSEDFAVYYCQQYYDWPPLTFGGGTKVEIK
notes: IgG

target: T3, His-tagged cynomolgus monkey CD38 (ACRO Biosystems, CD8-05223 [sic]) (cynomolgus monkey, UniProt Q5VAN0 43-301); test: SPR (second run), His-tagged CD38
T3 construct: bought protein; used for ELISA coating and as SPR analyte; not shown: His tag

Kd [nM]	Binder
149	B1
582	B2
200	B3
33.8	B4
24.3	B5
6030	B6

target: T4, His-tagged human CD38 (ACRO Biosystems CD8-H5224) (human, UniProt P28907 43-300); test: SPR (second run), His-tagged CD38
T4 construct: bought protein; used for ELISA coating and as SPR analyte; not shown: His tag

Kd [nM]	Binder
36.1	B1
91	B2
96.2	B3
9.71	B4
2.49	B5
29.6	B6

target: T1, His-tagged mouse CD38 (ACRO Biosystems …); test: SPR (second run), His-tagged CD38

Kd [nM]	Binder
3.33	B1
249	B2
55	B3
73	B4
1660	B5
501	B6

target: T5, Human CD38 on transiently transfected Expi293 cells (Origene SC321273) (human, UniProt P28907 1-300); test: flow cytometry, 10 ug/ml scFv-Fc, transfected Expi293 cells
T5 construct: whole, on cells

FACS percent gated [%]	Binder
92.6	B7
90.5	B8
91.6	B9
83.5	B10
92.2	B11
92.8	B12
91.2	B13

target: T2, Murine CD38 on transiently transfected …; test: as above

FACS percent gated [%]	Binder
2.87	B7
35.5	B8
35.9	B9
13.1	B10
2.43	B11
1.26	B12
1.57	B13

target: T3, His-tagged cynomolgus monkey CD38 (ACRO …); test: ELISA, 1 ug/ml scFv-Fc, coated His-tagged CD38

ELISA signal	Binder
1.47	B7
1.6	B8
1.59	B9
1.34	B10
1.62	B11
1.52	B12
1.67	B13

target: T4, His-tagged human CD38 (ACRO Biosystems …); test: ELISA, 1 ug/ml scFv-Fc, coated His-tagged CD38

ELISA signal	Binder
1.51	B7
1.76	B8
1.67	B9
1.48	B10
1.75	B11
1.53	B12
1.55	B13

target: T1, His-tagged mouse CD38 (ACRO Biosystems …); test: ELISA, 1 ug/ml scFv-Fc, coated His-tagged CD38

ELISA signal	Binder
0.043	B7
1.27	B8
1.26	B9
0.043	B11
0.043	B12
0.044	B13

target: T4, His-tagged human CD38 (ACRO Biosystems …); test: SPR, IgG

Kd [nM]	Binder
10.9	B14

target: T1, His-tagged mouse CD38 (ACRO Biosystems …); test: SPR, IgG

Kd [nM]	Binder
6.71	B14

Source: patent US20220306762A1 (CRYSTAL BIOSCIENCE, published 2022)
